The values that follow come from patent US20180273584A1 (REGENTS OF THE UNIVERSITY OF MICHIGAN, published 2018).

In assay [1] the target is T1, HER2 over expressed in mouse colonic neoplasia (CPC;Apc mice) (mouse, UniProt P70424 23-1256).
T1 construct: whole, on cells; also called mouse HER2
The experiment in a line: in vivo NIR fluorescence endoscopy, topical peptide, n=15 adenomas in mice, target-to-background ratio. On the procedure: Mouse imaging studies were performed with approval of the University of Michigan Committee on the Use and Care of Animals (UCUCA). The mice were housed in pathogen-free conditions and supplied water ad libitum under controlled conditions of humidity (50±10%), light (12/12 hour light/dark cycle) and temperature (25° C.). Anesthesia was induced and maintained via a nose cone with inhaled isoflurane mixed with oxygen at a concentration of 2-4% at a flow rate of ˜0.5 L/min. The colon was first rinsed with tap water to remove mucous and debris. White light illumination was used first to identify anatomic landmarks, including polyps, mucosal folds, colonic segment, and distance of endoscope tip from anus, to register the in vivo images with histology. […] During imaging, we recorded the 1) distance between the endoscope tip and the anus and 2) clockwise location of each region of high intensity. […]
We evaluated specific binding of KSP*-Cy5.5 to colonic adenomas that over express HER2 in CPC; Apc mice This mouse was genetically engineered to somatically delete an Apc allele under Cre regulation, and develops polypoid and flat adenomas spontaneously in the colon. […] Imaging was performed in vivo using a small animal endoscope that is sensitive to NIR fluorescence. […]

Assay [2] has as its target T1, HER2 over expressed in mouse colonic …. The experiment in a line: fluorescence imaging of mouse colon after intravenous KSP*-Cy5.5, n=4 mice.
Assay [3] concerns the target T2, Human epidermal growth factor receptor 2 (HER2) (human, UniProt P04626 23-1255).
T2 construct: whole, on cells; also called ErbB2
In words: flow cytometry on HT29 cells, apparent dissociation constant, 0-200 nM peptide, 4 °C 1 h. On the procedure: We measured the apparent dissociation constant of the HER2 peptide reagent to HT29 cells as an assessment of binding affinity. KSP*-Cy5.5 was serially diluted in PBS at concentrations of 0, 5, 10, 25, 50, 100, and 200 nM. ˜105 HT29 cells were incubated with KSP*-Cy5.5 at 4° C. for 1 hour and washed with cold PBS. The mean fluorescence intensities were measured with flow cytometry (BD® LSRII, BD Biosciences). The equilibrium dissociation constant kd=1/ka was calculated by performing a least squares fit of the data to the non-linear equation I, (I0+Imaxka[X])/([…]). I0 and Imax are the initial and maximum fluorescence intensities, corresponding to no peptide reagent and at saturation, respectively, and [X] represents the concentration of the bound peptide reagent. Graphpad prism analysis software (Graphpad Software Inc, La Jolla, Calif.) was used to calculate kd and ka.
We evaluated the binding parameters of KSP*-Cy5.5 to HT29 cells using flow cytometry.
In general terms: A flow cytometer gives signals particle by particle.

The target of assay [4] is T2, Human epidermal growth factor receptor …. The experiment in a line: confocal microscopy, 10 µM FITC-labeled peptide on Flo1-HER2 cells against Q-hTERT control cells. On the procedure: Flo-1-Her2 and Q-hTERT cells were seeded with ˜7,500 cells in 12-well plates with 1.5 mm thick glass cover slides, and grown to ˜70% confluence. The cells were gently washed with cold PBS before adding the peptide. 10 μM of FITC-labeled peptide was added to each well and incubated at 4° C. for 1 hour. After incubation, the cells were washed 3× with PBS, fixed in ice-cold 4% PFA for 10 min, and washed 1× with PBS. Subsequently, the cells were embedded on microscope slides with ProLong Gold reagent containing DAPI (Invitrogen), and the slides where analyzed with a Leica TCS SP5 confocal microscope using 63× oil immersion objective (Leica Microsystems, Leider Lane IL). The FITC-labeled peptides and anti-HER2 antibody were tested in quadruplicate.
We attached a FITC label to each peptide, and imaged binding to Flo1-HER2 and Q-hTERT cells (control) using confocal microscopy. Western blot of these cells show difference in HER2 expression, FIG. 1B. We selected KSPNPRF based on the highest mean fluorescence intensity with binding to Flo1-HER2, FIG. 1C. From our model, this peptide binds to HER2 domain 3. […] The fluorescence emission peak occurs at 708 nm in the NIR spectrum. For both peptides, we achieved >98% purity with HPLC, and measured an experimental mass-to-charge (m/z) ratio on mass spectrometry of 1794.98, which agrees with expected values, FIG. 8A,B.

Assay [5] deals with HER2 over expressed in mouse colonic neoplasia (CPC;Apc mice) (mouse) (UniProt P70424). The experiment in a line: in vivo NIR fluorescence endoscopy, topical peptide, n=7 adenomas in mice, target-to-background ratio.
Chain of HER2 over expressed in mouse colonic neoplasia (CPC;Apc mice) (mouse) (P70424 23-1256): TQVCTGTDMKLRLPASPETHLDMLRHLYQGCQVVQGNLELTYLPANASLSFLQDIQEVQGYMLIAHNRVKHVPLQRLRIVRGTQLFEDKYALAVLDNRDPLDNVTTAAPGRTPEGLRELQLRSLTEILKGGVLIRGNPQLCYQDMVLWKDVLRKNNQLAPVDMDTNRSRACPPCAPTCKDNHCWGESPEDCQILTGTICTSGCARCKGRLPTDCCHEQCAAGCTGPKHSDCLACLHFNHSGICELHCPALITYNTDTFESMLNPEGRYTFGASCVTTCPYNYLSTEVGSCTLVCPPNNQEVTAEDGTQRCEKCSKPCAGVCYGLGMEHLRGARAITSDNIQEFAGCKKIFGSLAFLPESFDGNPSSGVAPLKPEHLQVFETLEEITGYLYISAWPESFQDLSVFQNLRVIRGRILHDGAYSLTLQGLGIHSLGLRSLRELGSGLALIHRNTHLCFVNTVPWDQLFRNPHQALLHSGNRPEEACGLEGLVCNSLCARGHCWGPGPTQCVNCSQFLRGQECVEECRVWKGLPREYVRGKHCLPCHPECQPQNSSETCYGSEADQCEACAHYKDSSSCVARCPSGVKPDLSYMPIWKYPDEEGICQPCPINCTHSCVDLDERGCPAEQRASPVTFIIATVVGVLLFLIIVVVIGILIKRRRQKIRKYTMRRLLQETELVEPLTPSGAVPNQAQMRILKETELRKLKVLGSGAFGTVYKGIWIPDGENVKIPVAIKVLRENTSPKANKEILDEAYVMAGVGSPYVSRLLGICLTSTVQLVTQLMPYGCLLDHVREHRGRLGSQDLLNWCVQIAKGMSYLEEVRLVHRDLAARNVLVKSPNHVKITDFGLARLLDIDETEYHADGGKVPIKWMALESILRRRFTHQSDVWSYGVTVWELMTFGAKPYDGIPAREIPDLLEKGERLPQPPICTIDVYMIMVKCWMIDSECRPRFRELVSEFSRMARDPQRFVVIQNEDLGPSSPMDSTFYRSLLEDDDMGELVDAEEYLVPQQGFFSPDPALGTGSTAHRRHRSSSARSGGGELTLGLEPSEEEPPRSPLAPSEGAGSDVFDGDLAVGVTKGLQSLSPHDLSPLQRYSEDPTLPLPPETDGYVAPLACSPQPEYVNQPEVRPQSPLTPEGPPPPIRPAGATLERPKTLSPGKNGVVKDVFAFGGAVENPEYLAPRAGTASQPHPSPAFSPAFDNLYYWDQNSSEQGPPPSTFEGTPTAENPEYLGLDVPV

Primed or numbered codes have the meaning given here. Ends that are not written are not given here. Cy5.5 = Cy5.5: Cy5.5 fluorophore (fluorescent dye); Cy5.5″ = Cy5.5 fluorophore

T1 sequence (P70424 23-1256): as above

B1: KSP*-Cy5.5 (KSPNPRF peptide labeled with Cy5.5 fluorophore via a GGGSK linker on the C-terminus) (peptide)
peptide: KSPNPRFGGGSK(Cy5.5)-NH2
notes: Synthetic L-amino-acid peptide, Fmoc solid-phase synthesis; also called HER2 peptide reagent; KSP*-Cy5.5 peptide reagent
For B1, the “mean T/B ratio” value in assay [1] was determined as 3.64. Besides, the “fold mean fluorescence intensity, adenomas against surrounding normal mucosa” value in assay [2] amounted to 5.03 fold. Also, in assay [3], the Kd stood at 21 nM.

In the case of KSPNPRF (also: FITC label, site of attachment not given here, also called FITC-labeled peptide) [FITC-labeled KSPNPRF (PEP1)], the binding result in assay [4] is given as “binds”.

In the case of PPSNFKRGGGSK(Cy5.5″)-NH2 [PPS*-Cy5.5 (scrambled control peptide PPSNFKR linked to Cy5.5 via GGGSK)], the mean T/B ratio in assay [5] worked out at 1.46.
